Data from the supplement of paper PMC10724198.
± gives the standard deviation of the averaged measurements.

Test system: Saccharomyces cerevisiae
Assay: protein stability index of tFT-peptide fusion (C-terminal peptide) (PSI (0-1 scale)); higher = more stable (slower turnover)
Details: temperature: 30 C
Description: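 MPS profiling in S. cerevisiae of the yeast C-terminome library: the last 12 aa of each annotated ORF are fused to the C-terminus of a sfGFP-mCherry timer, after a GGGS linker. Cells are FACS-sorted into 8 mCherry/sfGFP bins and deep-sequenced. PSI runs from 0 (unstable) to 1 (stable); wild type and das1Δ backgrounds, two technical replicates each.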

[1] = genetic background: das1 deletion

Row | Sequence | protein stability index [1] | protein stability index (genetic background: wild type)
1 | PRRSDLRPEFAE [VMA9 C-terminal 12 aa] | 0.672 ± 0.022 | 0.665 ± 0.018
2 | PSAYVLFYERIF [UBP5 C-terminal 12 aa] | 0.71 ± 0.015 | 0.678 ± 0.018
3 | PSFSNSQWRIIF [YOR169C C-terminal 12 aa] | 0.714 ± 0.021 | 0.694 ± 0.016
4 | PSYAVCDNILVT [YOL013W-B C-terminal 12 aa] | 0.67 ± 0.04 | 0.653 ± 0.017
5 | PTFLIPLRLCFV [EMA19 C-terminal 12 aa] | 0.329 ± 0.02 | 0.336 ± 0.0072
6 | PTPPTPPTPPQQ [ECM19 C-terminal 12 aa] | 0.701 ± 0.014 | 0.687 ± 0.027
7 | PTTRPYIYEPRK [ELA1 C-terminal 12 aa] | 0.696 ± 0.011 | 0.662 ± 0.017
8 | PTWQIVEDIRNT [PMT3 C-terminal 12 aa] | 0.728 ± 0.025 | 0.718 ± 0.038
9 | PVIKKSKKCAIL [CDC42 C-terminal 12 aa] | 0.757 ± 0.0059 | 0.6072 ± 0.0055
10 | PVRHQTGMHFCI [YHR032W-A C-terminal 12 aa] | 0.721 ± 0.009 | 0.682 ± 0.029
11 | PVVFHSGPVVWK [YLR415C C-terminal 12 aa] | 0.72 ± 0.034 | 0.6969 ± 0.0058
12 | PYLEEAYSNLEE [PPX1 C-terminal 12 aa] | 0.685 ± 0.0024 | 0.722 ± 0.048
13 | QCPVCRSPLPPL [TUL1 C-terminal 12 aa] | 0.714 ± 0.023 | 0.742 ± 0.013
14 | QEAGAFTFNEDF [RNR2 C-terminal 12 aa] | 0.726 ± 0.018 | 0.711 ± 0.0081
15 | QEFVCFLFWPLT [YOR335W-A C-terminal 12 aa] | 0.63 ± 0.0097 | 0.6034 ± 0.0059
16 | QELCADSTIYHM [LIP1 C-terminal 12 aa] | 0.687 ± 0.017 | 0.734 ± 0.065
17 | QELLKLLENEKK [SLK19 C-terminal 12 aa] | 0.727 ± 0.029 | 0.726 ± 0.047
18 | QFSFKAVTFLLI [YOR314W-A C-terminal 12 aa] | 0.629 ± 0.048 | 0.563 ± 0.052
19 | QILLDKLNAVKK [HIT1 C-terminal 12 aa] | 0.66 ± 0.03 | 0.653 ± 0.019
20 | QKDSRGKKKIKK [YMR114C C-terminal 12 aa] | 0.691 ± 0.026 | 0.63611 ± 0.00024
21 | QKKEEAKHKASE [UFD2 C-terminal 12 aa] | 0.711 ± 0.0087 | 0.721 ± 0.067

Row | Sequence | protein stability index [1] | protein stability index (genetic background: wild type)
22 | QNNSQGFLREII [TDA7 C-terminal 12 aa] | 0.6961 ± 0.004 | 0.6925 ± 0.0034
23 | QNRFISINKIFW [YDR133C C-terminal 12 aa] | 0.7034 ± 0.0032 | 0.6671 ± 0.0016
24 | QRRTSLDYGGYF [TAF3 C-terminal 12 aa] | 0.708 ± 0.02 | 0.725 ± 0.011
25 | QSLVESPPPYVP [SNA4 C-terminal 12 aa] | 0.6915 ± 0.0048 | 0.7 ± 0.015
26 | QTQLCKRKKKLT [VIK1 C-terminal 12 aa] | 0.687 ± 0.024 | 0.608 ± 0.051
27 | QTVSTYTKVTPK [NCE103 C-terminal 12 aa] | 0.715 ± 0.016 | 0.702 ± 0.025
28 | QVLGTEEPTVRT [PGM2 C-terminal 12 aa] | 0.696 ± 0.046 | 0.6625 ± 0.0017
29 | QVVDTIKDVHRC [YBR197C C-terminal 12 aa] | 0.7 ± 0.027 | 0.706 ± 0.021
30 | RALVDAIQLRGV [CGI121 C-terminal 12 aa] | 0.68 ± 0.024 | 0.663 ± 0.0088
31 | RDFFFKNVCVKM [TBS1 C-terminal 12 aa] | 0.623 ± 0.018 | 0.56 ± 0.0057
32 | RDLQSALVRQLL [CAD1 C-terminal 12 aa] | 0.718 ± 0.025 | 0.68 ± 0.021
33 | RDRLVESCHFTQ [CIN4 C-terminal 12 aa] | 0.722 ± 0.023 | 0.706 ± 0.022
34 | RDVTDWWESREI [CCZ1 C-terminal 12 aa] | 0.7553 ± 0.0041 | 0.7652 ± 0.0026
35 | REKAEAEAEKKK [RPL13A C-terminal 12 aa] | 0.704 ± 0.014 | 0.68 ± 0.0053
36 | RELGFLFGLNAL [ULS1 C-terminal 12 aa] | 0.751 ± 0.011 | 0.6855 ± 0.0018
37 | RELWDEEKEIVL [KES1 C-terminal 12 aa] | 0.704 ± 0.033 | 0.73 ± 0.037
38 | RERAKKLVTWLI [SSY1 C-terminal 12 aa] | 0.6701 ± 0.0019 | 0.475 ± 0.026
39 | RFIRTANKKDYL [IMP4 C-terminal 12 aa] | 0.671 ± 0.0071 | 0.7335 ± 0.0025
40 | RHHEQSHGQEDH [YLR361C-A C-terminal 12 aa] | 0.6985 ± 0.0034 | 0.6868 ± 0.0011
41 | RHICVGAKLCKF [MCH4 C-terminal 12 aa] | 0.8165 ± 0.0035 | 0.818 ± 0.11
